From US20230031980A1 (SHANGHAI NINTH PEOPLE S HOSPITAL SHANGHAI JIAO TONG …, published 2023)

B3: INTS3CTD (C-terminal domain of INTS3, residues 572-978) (other)
chain: DQLDESLRDKVLQLQKGSDTEAQCEVMQEIVDQVLEEDFDSEQLSVLASCLQELFKAHFRGEVLPEEITEESLEESVGKPLYLIFRNLCQMQEDNSSFSLLLDLLSELYQKQPKIGYHLLYYLRASKAAAGKMNLYESFAQATQLGDLHTCLMMDMKACQEDDVRLLCHLTPSIYTEFPDETLRSGELLNMIVAVIDSAQLQELVCHVMMGNLVMFRKDSVLNILIQSLDWETFEQYCAWQLFLAHNIPLETIIPILQHLKYKEHPEALSCLLLQLRREKPSEEMVKMVLSRPCHPDDQFTTSILRHWCMKHDELLAEHIKSLLIKNNSLPRKRQSLRSSSSKLAQLTLEQILEHLDNLRLNLTNTKQNFFSQTPILQALQHVQASCDEAHKMKFSDLFSLAEEYED
notes: also called INTS3CTD dimer

Experiments:
[1] = target: B3; assay: purification of the complex, size-exclusion chromatography (FIG. 8B)
[2] = target: B3; assay: ITC (MicroCal iTC200, 16 °C, single-site model, two independent experiments)
Procedure: The equilibrium dissociation constant of the SAGE1I3BD-INTS3CTD interaction was determined using a MicroCal iTC200 calorimeter (Malvern). The binding enthalpy was measured at 16° C. in 25 mM Tris-HCl pH 8.0, 150 mM NaCl and 5 mM MgCl2. Two independent experiments were performed. ITC data were subsequently analyzed and fitted using Origin 7 software (OriginLab).
All statistical tests of experimental results were performed using the GraphPad Prism 7 unless noted. The statistical significance was calculated via unpaired two-tailed Student's t test. The dissociation constants (Kd) in ITC experiments were calculated using the Origin 7 software as mean±standard error from two independent experiments with a single site-specific binding model. The statistical analysis of in vivo experiments data was performed using nonparametric Mann-Whitney test. Results were represented as mean±standard deviation unless noted and p<0.05 was considered statistically significant.

[3] = target: the molecule itself; assay: homodimerisation of two INTS3CTD protomers; crystal structure (2.3 Å) and calibrated size-exclusion chromatography
[4] = target: T1, His-INTS3-Strep (human, UniProt Q68E01 2-1043); assay: co-IP in transfected HEK-293T cells (FIG. 6C)
T1 construct: also called INTS3 (co-IP construct)
Procedure: (§1) After 48 hours, cells were lysed in IP buffer containing 50 mM Tris-HCl pH 7.5, 150 mM NaCl, 0.1% Triton-X100, 1 mM EDTA and 1×Roche protease inhibitor. The supernatants were incubated overnight with mouse anti-His monoclonal antibody (Proteintech #66005-1-Ig), or rabbit anti-FLAG polyclonal antibody (Proteintech #20543-1-AP).
(§2) Then, protein A/G agarose beads (Millipore, #[…]02) were added and rotated for 2 more hours. The immunoprecipitated complexes were subjected to SDS-PAGE, followed by Western blot and/or MS analyses.

[5] = target: T1, His-INTS3-Strep; assay: co-IP
Procedure: as §1, §2

T1 sequence (Q68E01 2-1043): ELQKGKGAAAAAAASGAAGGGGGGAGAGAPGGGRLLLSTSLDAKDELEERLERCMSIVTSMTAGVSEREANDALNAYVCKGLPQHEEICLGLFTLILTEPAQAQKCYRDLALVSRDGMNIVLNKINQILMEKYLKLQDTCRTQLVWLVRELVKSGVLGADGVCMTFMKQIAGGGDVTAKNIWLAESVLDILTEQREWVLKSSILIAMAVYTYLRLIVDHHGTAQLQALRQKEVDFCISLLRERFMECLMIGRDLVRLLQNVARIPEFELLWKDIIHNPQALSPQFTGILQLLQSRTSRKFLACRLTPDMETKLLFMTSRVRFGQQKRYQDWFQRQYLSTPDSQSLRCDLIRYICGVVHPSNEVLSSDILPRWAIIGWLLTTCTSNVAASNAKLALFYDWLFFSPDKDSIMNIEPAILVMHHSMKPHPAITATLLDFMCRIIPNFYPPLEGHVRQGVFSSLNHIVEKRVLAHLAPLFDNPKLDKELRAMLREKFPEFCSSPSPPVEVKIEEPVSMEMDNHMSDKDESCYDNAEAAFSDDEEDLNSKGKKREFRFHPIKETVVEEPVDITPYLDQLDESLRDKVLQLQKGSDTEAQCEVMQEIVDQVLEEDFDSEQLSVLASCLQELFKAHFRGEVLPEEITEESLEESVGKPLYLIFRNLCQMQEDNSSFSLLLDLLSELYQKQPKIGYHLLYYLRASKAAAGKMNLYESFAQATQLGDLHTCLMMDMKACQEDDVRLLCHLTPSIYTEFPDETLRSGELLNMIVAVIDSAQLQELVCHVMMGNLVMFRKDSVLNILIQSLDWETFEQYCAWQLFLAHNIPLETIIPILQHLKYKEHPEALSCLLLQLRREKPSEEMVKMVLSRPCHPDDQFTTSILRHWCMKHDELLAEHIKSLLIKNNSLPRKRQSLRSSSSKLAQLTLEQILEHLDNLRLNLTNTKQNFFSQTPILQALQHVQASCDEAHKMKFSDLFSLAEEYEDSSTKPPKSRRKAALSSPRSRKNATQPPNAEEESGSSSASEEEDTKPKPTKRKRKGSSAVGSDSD

B1: INTS6I3BD (INTS3-binding domain of INTS6, residues 803-887) (other)
chain: RSHEEVNTELKAQIMKEIRKPGRKYERIFTLLKHVQGSLQTRLIFLQNVIKEASRFKKRMLIEQLENFLDEIHRRANQINHINSN
notes: It was cloned in pGEX-6P-1 and purified as the INTS3CTD-INTS6I3BD complex; also called INTS6803-887; small domain at the C-terminus of INTS6
B1: binds [1].

B2: SAGE1I3BD (INTS3-binding domain of SAGE1, residues 818-904) (other)
chain: AMAKKINDDIKYQLMKEVRRFGQNYERIFILLEEVQGSMKVKRQFVEFTIKEAARFKKVVLIQQLEKALKEIDSHCHLRKVKHMRKR
notes: Expressed in E. coli with a His-SUMO or GST tag; also called SAGE1818-904; small C-terminal region of SAGE1
With B2 the Kd [2] was about 39 nM.

B3: binds [3].

B4: His-SAGE1-Flag (WT SAGE1) (other, not shown: small tags and cut ends)
chain: MQASPLQTSQPTPPEELHAAAYVFTNDGQQMRSDEVNLVATGHQSKKKHSRKSKRHSSSKRRKSMSSWLDKQEDAAVTHSICEERINNGQPVADNVLSTAPPWPDATIAHNIREERMENGQSRTDKVLSTAPPQLVHMAAAGIPSMSTRDLHSTVTHNIREERMENGQPQPDNVLSTGPTGLINMAATPIPAMSARDLYATVTHNVCEQKMENVQPAPDNVLLTLRPRRINMTDTGISPMSTRDPYATITYNVPEEKMEKGQPQPDNILSTASTGLINVAGAGTPAISTNGLYSTVPHNVCEEKMENDQPQPNNVLSTVQPVIIYLTATGIPGMNTRDQYATITHNVCEERVVNNQPLPSNALSTVLPGLAYLATADMPAMSTRDQHATIIHNLREEKKDNSQPTPDNVLSAVTPELINLAGAGIPPMSTRDQYATVNHHVHEARMENGQRKQDNVLSNVLSGLINMAGASIPAMSSRDLYATITHSVREEKMESGKPQTDKVISNDAPQLGHMAAGGIPSMSTKDLYATVTQNVHEERMENNQPQPSYDLSTVLPGLTYLTVAGIPAMSTRDQYATVTHNVHEEKIKNGQAASDNVFSTVPPAFINMAATGVSSMSTRDQYAAVTHNIREEKINNSQPAPGNILSTAPPWLRHMAAAGISSTITRDLYVTATHSVHEEKMTNGQQAPDNSLSTVPPGCINLSGAGISCRSTRDLYATVIHDIQEEEMENDQTPPDGFLSNSDSPELINMTGHCMPPNALDSFSHDFTSLSKDELLYKPDSNEFAVGTKNYSVSAGDPPVTVMSLVETVPNTPQISPAMAKKINDDIKYQLMKEVRRFGQNYERIFILLEEVQGSMKVKRQFVEFTIKEAARFKKVVLIQQLEKALKEIDSHCHLRKVKHMRKR
notes: also called wild type SAGE1
B4: binds [4].

B5: SAGE1mut (R872A, F873A, K874A, M832A, F838A and Q840A) (other, not shown: small tags and cut ends)
chain: MQASPLQTSQPTPPEELHAAAYVFTNDGQQMRSDEVNLVATGHQSKKKHSRKSKRHSSSKRRKSMSSWLDKQEDAAVTHSICEERINNGQPVADNVLSTAPPWPDATIAHNIREERMENGQSRTDKVLSTAPPQLVHMAAAGIPSMSTRDLHSTVTHNIREERMENGQPQPDNVLSTGPTGLINMAATPIPAMSARDLYATVTHNVCEQKMENVQPAPDNVLLTLRPRRINMTDTGISPMSTRDPYATITYNVPEEKMEKGQPQPDNILSTASTGLINVAGAGTPAISTNGLYSTVPHNVCEEKMENDQPQPNNVLSTVQPVIIYLTATGIPGMNTRDQYATITHNVCEERVVNNQPLPSNALSTVLPGLAYLATADMPAMSTRDQHATIIHNLREEKKDNSQPTPDNVLSAVTPELINLAGAGIPPMSTRDQYATVNHHVHEARMENGQRKQDNVLSNVLSGLINMAGASIPAMSSRDLYATITHSVREEKMESGKPQTDKVISNDAPQLGHMAAGGIPSMSTKDLYATVTQNVHEERMENNQPQPSYDLSTVLPGLTYLTVAGIPAMSTRDQYATVTHNVHEEKIKNGQAASDNVFSTVPPAFINMAATGVSSMSTRDQYAAVTHNIREEKINNSQPAPGNILSTAPPWLRHMAAAGISSTITRDLYVTATHSVHEEKMTNGQQAPDNSLSTVPPGCINLSGAGISCRSTRDLYATVIHDIQEEEMENDQTPPDGFLSNSDSPELINMTGHCMPPNALDSFSHDFTSLSKDELLYKPDSNEFAVGTKNYSVSAGDPPVTVMSLVETVPNTPQISPAMAKKINDDIKYQLAKEVRRAGANYERIFILLEEVQGSMKVKRQFVEFTIKEAAAAAKVVLIQQLEKALKEIDSHCHLRKVKHMRKR
notes: Derived from the WT SAGE1 plasmid by site-directed mutagenesis; also called mutant SAGE1; Mutant SAGE1
B5: no binding [5].

B6: SAGE1ΔI3BD (deletion mutant of SAGE1 lacking the I3BD domain) (other)
chain: MQASPLQTSQPTPPEELHAAAYVFTNDGQQMRSDEVNLVATGHQSKKKHSRKSKRHSSSKRRKSMSSWLDKQEDAAVTHSICEERINNGQPVADNVLSTAPPWPDATIAHNIREERMENGQSRTDKVLSTAPPQLVHMAAAGIPSMSTRDLHSTVTHNIREERMENGQPQPDNVLSTGPTGLINMAATPIPAMSARDLYATVTHNVCEQKMENVQPAPDNVLLTLRPRRINMTDTGISPMSTRDPYATITYNVPEEKMEKGQPQPDNILSTASTGLINVAGAGTPAISTNGLYSTVPHNVCEEKMENDQPQPNNVLSTVQPVIIYLTATGIPGMNTRDQYATITHNVCEERVVNNQPLPSNALSTVLPGLAYLATADMPAMSTRDQHATIIHNLREEKKDNSQPTPDNVLSAVTPELINLAGAGIPPMSTRDQYATVNHHVHEARMENGQRKQDNVLSNVLSGLINMAGASIPAMSSRDLYATITHSVREEKMESGKPQTDKVISNDAPQLGHMAAGGIPSMSTKDLYATVTQNVHEERMENNQPQPSYDLSTVLPGLTYLTVAGIPAMSTRDQYATVTHNVHEEKIKNGQAASDNVFSTVPPAFINMAATGVSSMSTRDQYAAVTHNIREEKINNSQPAPGNILSTAPPWLRHMAAAGISSTITRDLYVTATHSVHEEKMTNGQQAPDNSLSTVPPGCINLSGAGISCRSTRDLYATVIHDIQEEEMENDQTPPDGFLSNSDSPELINMTGHCMPPNALDSFSHDFTSLSKDELLYKPDSNEFAVGTKNYSVSAGDPPVTVMSLVETVPNTPQISP
notes: also called SAGE1DI3BD
B6: no binding [5].
